The results in this text go back to US20170369576A1.

The target of assay [1] is HIV-1 envelope glycoprotein of isolate JRCSF (R5), on pseudotype virus (HIV-1 (JRCSF)). The experiment in a line: cell-based or functional assay.
The target of assay [2] is HIV-1 envelope glycoprotein of isolate 92TH594 (R5/X4), on pseudotype virus (HIV-1 (92TH594)). Kind of assay: cell-based or functional assay.
In assay [3] the target is HIV-1 envelope glycoprotein of isolate HXB2 (X4), on pseudotype virus (HIV-1 (HXB2)) (UniProt P04578). The experiment in a line: cell-based or functional assay.
The target in assay [4] is chimpanzee CD4 on PBMC (chimpanzee) (UniProt P16004). Kind of assay: FACS of chimp X301 PBMC, sequential staining: 1st Leu3a binding, 2nd B4 exposure.
The target is the same in assay [5]. The experiment in a line: FACS of chimp X282 PBMC, sequential staining: 1st Leu3a binding, 2nd B4 exposure.
The target is the same in assay [6]. The experiment in a line: FACS of chimp X301 PBMC, sequential staining: 1st B4 binding, 2nd Leu3a exposure; competitor B4 prebound.
Assay [7] has the same target. The experiment in a line: FACS of chimp X282 PBMC stained with Leu3a-PE only.
The target is the same in assay [8]. Kind of assay: FACS of chimp X301 PBMC stained with Leu3a-PE only.
Assay [9] has the same target. The experiment in a line: FACS of chimp X282 PBMC, sequential staining: 1st B4 binding, 2nd Leu3a exposure; competitor B4 prebound.

chimpanzee CD4 on PBMC (chimpanzee), sequence (P16004 26-458): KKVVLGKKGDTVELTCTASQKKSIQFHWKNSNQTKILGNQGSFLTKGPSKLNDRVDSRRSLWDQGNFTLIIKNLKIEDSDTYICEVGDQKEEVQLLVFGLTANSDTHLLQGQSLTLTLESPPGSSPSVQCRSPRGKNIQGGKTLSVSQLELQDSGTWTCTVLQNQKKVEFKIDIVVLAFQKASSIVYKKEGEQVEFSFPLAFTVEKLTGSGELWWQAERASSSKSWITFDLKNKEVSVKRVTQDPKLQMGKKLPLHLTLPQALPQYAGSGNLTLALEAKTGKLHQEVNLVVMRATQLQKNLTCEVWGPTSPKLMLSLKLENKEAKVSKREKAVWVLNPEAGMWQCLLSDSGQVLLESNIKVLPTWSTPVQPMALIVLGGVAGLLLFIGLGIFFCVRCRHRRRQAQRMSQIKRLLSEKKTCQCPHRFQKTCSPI

The substance monoclonal neutralizing antibody 2F5 had an IC50 of HIV entry inhibition, pseudotype virus JRCSF (R5), U87-CD4+/CCR5+/CXCR4+ cells in assay [1] of 4 µg/mL. The substance also gave an IC50 of HIV entry inhibition, pseudotype virus 92TH594 (R5/X4), U87-CD4+/CCR5+/CXCR4+ cells in assay [2] of 3 µg/mL. This substance had an IC50 of HIV entry inhibition, pseudotype virus HXB2 (X4), U87-CD4+/CCR5+/CXCR4+ cells in [3] of 0.07 µg/mL.
Regarding anti-CD4 monoclonal antibody Leu3a, the percent positive PBMC (Leu3a+ B4-) turned out to be 0.3% in assay [4], 0.1% in assay [5], 0% in [6] and 0% in assay [9]. Besides, the percent positive PBMC (Leu3a+ B4+) in [6] is 3%; in [9], 1.2%. Also, the percent positive PBMC (single label control, Leu3a+) in assay [7] stood at 25.5%; in assay [8] it was 44%.
As to monoclonal neutralizing antibody 2G12, the IC50 of HIV entry inhibition, pseudotype virus JRCSF (R5), U87-CD4+/CCR5+/CXCR4+ cells in [1] was 0.8 µg/mL. Besides, in [2], the IC50 of HIV entry inhibition, pseudotype virus 92TH594 (R5/X4), U87-CD4+/CCR5+/CXCR4+ cells stood at 1.3 µg/mL. In [3], this substance gave an IC50 of HIV entry inhibition, pseudotype virus HXB2 (X4), U87-CD4+/CCR5+/CXCR4+ cells of 0.5 µg/mL.
